Results taken from patent US11912794B2, “Modulation of structured polypeptide specificity” (BicycleRD Limited, priority 2011, dated 2024).
Numbered stars: 1 amine (or outer) side, 2 acyl side, 3 side chain; on linkers, the order of the positions; unused ones are H or OH. Bridge positions count the residues as written; N and C are the ends. Ends that are not written are not given here. Peptide text beside a SMILES is read from it. TBMB = c1c(C[*:1])cc(C[*:3])cc1C[*:2]

target: biotinylated human plasma Kallikrein (Homo sapiens, UniProt P03952); test: Phage binding assay of individual clones, randomisation of peptide domains; details: not given
Sequence (P03952 20-638): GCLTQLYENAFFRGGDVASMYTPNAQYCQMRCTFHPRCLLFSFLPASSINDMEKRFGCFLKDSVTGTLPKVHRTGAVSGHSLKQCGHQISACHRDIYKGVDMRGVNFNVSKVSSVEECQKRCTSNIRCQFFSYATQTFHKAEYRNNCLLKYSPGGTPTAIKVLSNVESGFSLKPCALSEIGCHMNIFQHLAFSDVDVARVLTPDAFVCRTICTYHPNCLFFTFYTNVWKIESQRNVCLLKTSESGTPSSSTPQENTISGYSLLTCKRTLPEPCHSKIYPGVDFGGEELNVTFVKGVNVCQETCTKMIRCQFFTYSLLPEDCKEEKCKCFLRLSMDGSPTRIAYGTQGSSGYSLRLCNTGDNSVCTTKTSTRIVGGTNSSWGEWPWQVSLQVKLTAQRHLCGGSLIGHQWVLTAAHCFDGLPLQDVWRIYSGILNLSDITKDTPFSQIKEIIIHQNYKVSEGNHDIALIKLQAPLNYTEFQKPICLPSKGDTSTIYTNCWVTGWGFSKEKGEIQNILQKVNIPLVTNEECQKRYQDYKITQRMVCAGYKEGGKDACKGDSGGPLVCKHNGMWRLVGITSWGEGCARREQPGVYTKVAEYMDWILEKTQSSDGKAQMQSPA
Excerpt: Library construction: Small phage libraries were generated according to the methods of Heinis et al as described in ‘Cloning of phage libraries’ above. The sficx3ba primer was modified such that the bicycle-encoding portion was based on a parent 5×5 bicycle (5×5: two 5-residue loops) DNA sequence with only 4-6 codons randomized to NNS. The randomized codons were those encoding the peptide domain/motif of interest.
Assay of binding of individual clones: Library transformant colonies, or selection output colonies, were picked and grown as individual cultures in 2TY broth containing selective antibiotic. The picked colonies were DNA-sequenced using a QIAgen PyroMark Q96 DNA sequencer to reveal the amino-acid substitution present in each clone, and were assayed for human plasma Kallikrein binding as follows. The phage-containing supernatant was harvested from the culture and phage were cyclised with tris bromomethyl benzene(TBMB) based on the methods of Heinis et al (Nature Chemical Biology vol. 5 pp 502-507 (2009)). The purified phage from this process were assayed for binding to biotinylated human plasma Kallikrein using a homogeneous plate-based binding assay; assay read-out measured on a BMG Labtech Pherastar FS plate reader. The quantitative binding data from duplicate assay samples was averaged (mean) and expressed as signal:background. Assay data shown is representative of at least 2 independent experiments. The assay data was correlated with the peptide sequences.
(§1) The WPAR (SEQ ID NO: 18) motif identified from Example 1 was analysed in the context of the 06-34-03 peptide, in order to identify alternatives or improvements to the WPAR (SEQ ID NO: 18) motif. A library was constructed where positions 1, 6, 7, 8, 9 &10 of 06-34-03 were fixed and positions 2, 3, 4 & 5 were randomised (see ‘Randomisation of peptide domains—Library construction’ in Methods above). Selections against human plasma Kallikrein were performed at a variety of stringencies (see Phage selections' in Methods above). All output sequences were identified and analysed for target binding (see ‘Randomisation of peptide domains—Assay of binding of individual clones’ in Methods above). Table 17 lists each unique sequence, its relative abundance in the selection output (frequency), and a rank number according to target binding strength.
Selections against human plasma Kallikrein were performed with this library in order to study the non-WPAR (SEQ ID NO: 18) determinants of Kallikrein binding, and to isolate the optimal WPAR (SEQ ID NO: 18)-containing peptide sequence. Over 150 selection output sequences were isolated and screened for binding to human plasma Kallikrein (as described in Methods above). The sequences were ranked in order of Kallikrein binding and the top 50 sequences were aligned in Table 19. […]

Row | Molecule | Kallikrein binding in target binding assay
1 | CC(C)C[C@@H]1NC(=O)[C@H](CC(=O)O)NC(=O)[C@H](CCC(N)=O)NC(=O)[C@H](Cc2c[nH]cn2)NC(=O)[C@H]([C@@H](C)O)NC(=O)[C@@H]2CSCc3cc(cc(c3)CSC[C@@H](C(=O)N[C@@H](C)C(N)=O)NC1=O)CSC[C@H](NC(=O)[C@H](C)N)C(=O)N[C@@H](CO)C(=O)N[C@@H](Cc1c[nH]c3ccccc13)C(=O)N1CCC[C@H]1C(=O)N[C@@H](C)C(=O)N[C@@H](CCCNC(=N)N)C(=O)N2 [Peptide 06-34-03] (H-ACSWPARCTHQDLCA-NH2; linker 2-8-14 via TBMB; N-terminus and C-terminus assumed) | one of the best sequences

same assay, conditions: WPAR domain fixed, positions 1, 6, 7, 8, 9 & 10 randomised; top 50

Row | Molecule | Rank (sequences ranked according to Kallikrein binding)
2 | SEQ ID NO: 115 (CNWPARCTHQDLC; Synthetic sequence Kallikrein binder containing a WPAR motif) | 1
3 | SEQ ID NO: 116 (CHWPARCTHQDLC; Synthetic sequence Kallikrein binder containing a WPAR motif) | 3
4 | SEQ ID NO: 117 (CPWPARCTHQDLC; Synthetic sequence Kallikrein binder containing a WPAR motif) | 4
5 | SEQ ID NO: 118 (CSWPARCTHADLC; Synthetic sequence Kallikrein binder containing a WPAR motif) | 5
6 | SEQ ID NO: 119 (CSWPARCTHDDLC; Synthetic sequence Kallikrein binder containing a WPAR motif) | 6
7 | SEQ ID NO: 120 (CAWPARCTHTDLC; Synthetic sequence Kallikrein binder containing a WPAR motif) | 7
8 | SEQ ID NO: 121 (CQWPARCLHTDLC; Synthetic sequence Kallikrein binder containing a WPAR motif) | 8
9 | SEQ ID NO: 122 (CLWPARCTHQDLC; Synthetic sequence Kallikrein binder containing a WPAR motif) | 9
10 | SEQ ID NO: 123 (CTWPARCTHTDLC; Synthetic sequence Kallikrein binder containing a WPAR motif) | 10
11 | SEQ ID NO: 124 (CHWPARCTHQELC; Synthetic sequence Kallikrein binder containing a WPAR motif) | 11
12 | SEQ ID NO: 125 (CAWPARCLHDDLC; Synthetic sequence Kallikrein binder containing a WPAR motif) | 12
13 | SEQ ID NO: 126 (CSWPARCLHTDLC; Synthetic sequence Kallikrein binder containing a WPAR motif) | 13
14 | SEQ ID NO: 127 (CAWPARCTHVDLC; Synthetic sequence Kallikrein binder containing a WPAR motif) | 14
15 | SEQ ID NO: 128 (CAWPARCTHTDFC; Synthetic sequence Kallikrein binder containing a WPAR motif) | 15
16 | SEQ ID NO: 129 (CMWPARCMHQDLC; Synthetic sequence Kallikrein binder containing a WPAR motif) | 16
17 | SEQ ID NO: 130 (CAWPARCTHADLC; Synthetic sequence Kallikrein binder containing a WPAR motif) | 17

Row | Molecule | Rank (sequences ranked according to Kallikrein binding)
18 | SEQ ID NO: 131 (CQWPARCMHQDMC; Synthetic sequence Kallikrein binder containing a WPAR motif) | 18
19 | SEQ ID NO: 132 (CQWPARCTHSDLC; Synthetic sequence Kallikrein binder containing a WPAR motif) | 19
20 | SEQ ID NO: 133 (CLWPARCTHADLC; Synthetic sequence Kallikrein binder containing a WPAR motif) | 20
21 | SEQ ID NO: 134 (CRWPARCTHQDLC; Synthetic sequence Kallikrein binder containing a WPAR motif) | 21
22 | SEQ ID NO: 135 (CQWPARCMHQELC; Synthetic sequence Kallikrein binder containing a WPAR motif) | 22
23 | SEQ ID NO: 136 (CTWPARCLHQDLC; Synthetic sequence Kallikrein binder containing a WPAR motif) | 23
24 | SEQ ID NO: 137 (CSWPARCTHSHLC; Synthetic sequence Kallikrein binder containing a WPAR motif) | 24
25 | SEQ ID NO: 138 (CVWPARCTHQDLC; Synthetic sequence Kallikrein binder containing a WPAR motif) | 25
26 | SEQ ID NO: 139 (CTWPARCTHADLC; Synthetic sequence Kallikrein binder containing a WPAR motif) | 26
27 | SEQ ID NO: 140 (CHWPARCMHQDLC; Synthetic sequence Kallikrein binder containing a WPAR motif) | 27
28 | SEQ ID NO: 141 (CPWPARCTHTDLC; Synthetic sequence Kallikrein binder containing a WPAR motif) | 28
29 | SEQ ID NO: 142 (CAWPARCTHYDLC; Synthetic sequence Kallikrein binder containing a WPAR motif) | 29
30 | SEQ ID NO: 143 (CPWPARCTHQNLC; Synthetic sequence Kallikrein binder containing a WPAR motif) | 30
31 | SEQ ID NO: 144 (CSWPARCTHTELC; Synthetic sequence Kallikrein binder containing a WPAR motif) | 31
32 | SEQ ID NO: 145 (CAWPARCMHDDLC; Synthetic sequence Kallikrein binder containing a WPAR motif) | 32
33 | SEQ ID NO: 146 (CSWPARCLHTELC; Synthetic sequence Kallikrein binder containing a WPAR motif) | 33

target: T1, Biotinylated hPK (Homo sapiens, UniProt P03952); test: Phage selections, abundance of sequences in selection outputs; type: binding; details: 2nd stringency from High (1st value of cell)
T1 construct: IHPKA, from human plasma; purchased Innovative Research, Novi, MI, USA IHPKA; host or cells: human plasma
T1 sequence (P03952 20-638): as above
Method: Glycerol stocks of phage libraries were diluted to OD600=0.1 in 500 ml 2YT/chloramphenicol (30 μg/ml) cultures and phage were produced at 30° C. over night (15-16 hrs). Phage were purified and chemically modified as described in Heinis, et al., Nat Chem Biol 2009, 5 (7), 502-7 Biotinylated hPK (3 μg) (IHPKA, from human plasma, Innovative Research, Novi, MI, USA) was incubated with 50 μl pre-washed magnetic streptavidin beads (Dynal, M-280 from Invitrogen, Paisley, UK) for 10 minutes at RT. […] Blocked beads were then mixed with the blocked chemically modified phage and incubated for 30 minutes on a rotating wheel at RT. Beads were washed 8 times with washing buffer containing 0.1% Tween 20 and twice with washing buffer before incubation with 100 μl of 50 mM glycine, pH 2.2 for 5 minutes. Eluted phage were transferred to 50 μl of 1 M Tris-Cl, pH 8 for neutralization, incubated with 30 ml TG1 cells at OD600=0.4 for 90 minutes at 37° C. and the cells were plated on large 2YT/chloramphenicol plates. One or two additional rounds of panning were performed using the same procedures. In the second round of selection, neutravidin-coated magnetic beads were used to prevent the enrichment of streptavidin-specific peptides. The neutravidin beads were prepared by reacting 0.8 mg neutravidin (Pierce, Rockford, IL, USA) with 0.5 ml tosyl-activated magnetic beads (Dynal, M-280 from Invitrogen, Paisley, UK) according to the supplier's instructions.
as §1

Row | Molecule | Relative abundance of motif in selection output
34 | WSAR: phage clone: WSAR at positions 2-5 within the 06-34-03 sequence, TBMB-cyclised (also: TBMB-cyclised within the 06-34-03 context, the cysteines lie outside this motif) | 3%

same assay, conditions: 3rd stringency from High (2nd value of cell)

Row | Molecule | Relative abundance of motif in selection output
35 | WSAR: phage clone: WSAR at positions 2-5 within the 06-34-03 sequence, TBMB-cyclised (also: TBMB-cyclised within the 06-34-03 context, the cysteines lie outside this motif) | 3%

same assay, conditions: 4th stringency from High (3rd value of cell)

Row | Molecule | Relative abundance of motif in selection output
36 | WSAR: phage clone: WSAR at positions 2-5 within the 06-34-03 sequence, TBMB-cyclised (also: TBMB-cyclised within the 06-34-03 context, the cysteines lie outside this motif) | 7%

same assay, conditions: 5th stringency from High (4th value of cell)

Row | Molecule | Relative abundance of motif in selection output
37 | WSAR: phage clone: WSAR at positions 2-5 within the 06-34-03 sequence, TBMB-cyclised (also: TBMB-cyclised within the 06-34-03 context, the cysteines lie outside this motif) | 6%

same assay, conditions: stringency High

Row | Molecule | Relative abundance of motif in selection output
38 | WSAR: phage clone: WSAR at positions 2-5 within the 06-34-03 sequence, TBMB-cyclised (also: TBMB-cyclised within the 06-34-03 context, the cysteines lie outside this motif) | 3%

same assay, conditions: stringency LOW

Row | Molecule | Relative abundance of motif in selection output
39 | WSAR: phage clone: WSAR at positions 2-5 within the 06-34-03 sequence, TBMB-cyclised (also: TBMB-cyclised within the 06-34-03 context, the cysteines lie outside this motif) | 11%
